Experimental data taken from US20030073236A1, “p193 proteins and nucleic acids, and uses thereof” (priority 1999, published 2003).

Tests used:
SV40 T-Ag = molecular target: T1, SV40 T-Ag (Simian virus 40, UniProt P03070); experiment: p193/T-Ag binding by immune precipitation; settings: radiolabeled in vitro translated p193 mixed with recombinant T-Ag
T1 construct: construct designated CMV-T-Ag; expressed in transfected cells; host or cells: NIH-3T3
Protocol: A T-Ag cDNA was subcloned into pcDNA3.1 expression vector (which lacks the epitope tag; construct designated CMV-T-Ag). For IP/Western analyses, NIH-3T3 cells (ATCC, Rockville Md.) were co-transfected with […] and CMV-p193myc using the calcium phosphate approach (Sambrook, J., Fritsch, E. F., and Maniatis, T. (1989) Molecular cloning, Cold Spring Harbor Laboratory Press, Cold Spring Harbor, N.Y.). Protein (1 mg) prepared from the transfected cells was reacted with an anti-T-Ag (PAb419), an anti-myc (9E10, Santa Cruz Biotech.), or an IgG subtype-matched non-specific antibody (anti-GST, Pharmacia), and the resulting immune complexes were subjected to Western blot analysis. 100 μg of total protein from non-transfected and transfected cells were included as controls. The blots were probed with an anti-myc (9E10) or anti-T-Ag (PAb416) antibody, and signal was developed using the ECL method. […] Immune complex was then visualized via autoradiography (p193) or Western blotting (T-Ag) as described above.

[1] = test system: ES-derived cardiomyocytes; experiment: Isoproterenol effect on growth of ES-derived cardiomyocytes co-expressing p193dn and p53dn; assay type: cell-based; settings: cells with MHC-p193dn and MHC-p53dn, isoproterenol 1 μM mg/ml for 58 days, vs. absence
Source text: It follows then that if the p193 and p53 pathways are blocked, hypertrophic stimuli might result in direct cell cycle activity. To test this, undifferentiated ES cells were transfected with the MHC-neor/pGK-hygror transgene in combination with both the MHC-p193dn and MHC-p53dn transgenes. Transfected cells were enriched by virtue of their resistance to hygromycin, and then induced to differentiate. The ES-derived cardiomyocytes were then enriched by virtue of their resistance to G418. Cardiomyocyte growth was then compared in these cultures in the presence vs. absence of exogenous isoproterenol (1 μM mg/ml) for 58 days.

T1 sequence (Q8VE73 whole entry): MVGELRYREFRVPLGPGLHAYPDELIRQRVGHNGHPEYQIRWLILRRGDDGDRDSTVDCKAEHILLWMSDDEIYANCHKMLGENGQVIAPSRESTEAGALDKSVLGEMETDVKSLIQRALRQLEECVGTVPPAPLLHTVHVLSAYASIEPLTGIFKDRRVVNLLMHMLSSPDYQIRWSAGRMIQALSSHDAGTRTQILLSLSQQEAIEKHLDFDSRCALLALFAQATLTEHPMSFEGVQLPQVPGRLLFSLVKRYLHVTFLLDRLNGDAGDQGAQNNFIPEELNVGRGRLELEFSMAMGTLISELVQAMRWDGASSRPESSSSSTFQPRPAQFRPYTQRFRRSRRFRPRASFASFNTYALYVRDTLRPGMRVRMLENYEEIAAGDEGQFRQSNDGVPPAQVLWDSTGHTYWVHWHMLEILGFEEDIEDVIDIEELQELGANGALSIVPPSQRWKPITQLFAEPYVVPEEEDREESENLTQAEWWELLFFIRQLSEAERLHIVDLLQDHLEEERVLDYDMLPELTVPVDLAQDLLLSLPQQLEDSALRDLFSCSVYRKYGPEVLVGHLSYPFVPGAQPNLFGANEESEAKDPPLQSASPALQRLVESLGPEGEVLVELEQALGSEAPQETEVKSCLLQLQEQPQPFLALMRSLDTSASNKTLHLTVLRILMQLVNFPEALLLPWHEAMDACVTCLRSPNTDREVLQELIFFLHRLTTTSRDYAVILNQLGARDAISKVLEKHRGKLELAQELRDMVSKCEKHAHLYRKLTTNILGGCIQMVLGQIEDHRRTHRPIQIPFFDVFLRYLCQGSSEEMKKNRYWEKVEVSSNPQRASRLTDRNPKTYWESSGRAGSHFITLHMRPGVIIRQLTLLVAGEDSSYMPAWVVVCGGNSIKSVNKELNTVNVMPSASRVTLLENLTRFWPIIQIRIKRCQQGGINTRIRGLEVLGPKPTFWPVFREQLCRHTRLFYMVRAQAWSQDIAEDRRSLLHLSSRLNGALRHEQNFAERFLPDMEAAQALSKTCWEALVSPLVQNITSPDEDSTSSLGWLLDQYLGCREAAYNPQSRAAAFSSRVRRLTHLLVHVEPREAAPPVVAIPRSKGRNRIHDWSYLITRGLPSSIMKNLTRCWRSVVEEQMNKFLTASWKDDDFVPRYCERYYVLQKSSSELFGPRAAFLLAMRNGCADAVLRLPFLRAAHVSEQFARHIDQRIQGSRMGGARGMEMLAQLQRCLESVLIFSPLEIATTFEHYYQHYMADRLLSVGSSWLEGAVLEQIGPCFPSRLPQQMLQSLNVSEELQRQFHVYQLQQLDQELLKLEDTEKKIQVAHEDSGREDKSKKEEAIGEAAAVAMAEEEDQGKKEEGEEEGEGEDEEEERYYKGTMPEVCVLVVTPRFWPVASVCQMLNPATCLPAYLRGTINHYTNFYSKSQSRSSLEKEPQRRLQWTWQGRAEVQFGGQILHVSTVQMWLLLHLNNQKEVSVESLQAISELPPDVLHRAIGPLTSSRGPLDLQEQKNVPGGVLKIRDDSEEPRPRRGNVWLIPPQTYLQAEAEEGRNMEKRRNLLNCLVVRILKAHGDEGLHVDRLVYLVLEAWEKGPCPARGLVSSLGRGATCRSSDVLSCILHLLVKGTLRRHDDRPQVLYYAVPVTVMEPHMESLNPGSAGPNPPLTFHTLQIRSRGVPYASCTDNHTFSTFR
T1 sequence (P03070 whole entry): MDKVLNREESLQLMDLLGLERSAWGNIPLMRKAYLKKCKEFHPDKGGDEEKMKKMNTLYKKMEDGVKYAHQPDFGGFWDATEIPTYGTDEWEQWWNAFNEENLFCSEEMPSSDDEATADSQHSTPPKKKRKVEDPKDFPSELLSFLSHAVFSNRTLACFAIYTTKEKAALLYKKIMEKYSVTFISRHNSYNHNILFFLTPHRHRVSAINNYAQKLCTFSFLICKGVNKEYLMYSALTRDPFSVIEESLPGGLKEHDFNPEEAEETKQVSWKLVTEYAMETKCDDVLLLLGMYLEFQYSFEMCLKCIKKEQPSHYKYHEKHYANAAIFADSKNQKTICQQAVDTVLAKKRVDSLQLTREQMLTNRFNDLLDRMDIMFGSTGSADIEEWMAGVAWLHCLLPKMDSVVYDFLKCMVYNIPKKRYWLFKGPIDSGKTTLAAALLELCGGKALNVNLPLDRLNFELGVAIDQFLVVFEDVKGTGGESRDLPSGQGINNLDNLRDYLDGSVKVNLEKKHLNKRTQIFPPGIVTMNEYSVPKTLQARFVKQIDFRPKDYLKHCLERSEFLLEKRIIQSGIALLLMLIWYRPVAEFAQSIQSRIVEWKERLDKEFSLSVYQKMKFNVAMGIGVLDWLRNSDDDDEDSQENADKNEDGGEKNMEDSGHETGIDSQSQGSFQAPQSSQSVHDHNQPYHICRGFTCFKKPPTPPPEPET

| Compound | binding of in vitro translated protein to recombinant T-Ag (IP) (SV40 T-Ag) | cardiomyocyte colony size [1] |
| --- | --- | --- |
| p193: apoptosis associated, T-Ag binding protein of 1689 amino acid residues (mouse, SEQ. I.D. NO. 2); here in vitro translated | present in immune complex generated with anti-T-Ag antibody | – |
| CC(C)NCC(O)c1ccc(O)c(O)c1 (centres unmarked) [isoproterenol] | – | Markedly enhanced cardiomyocyte colony size |
